localisation_or_trafficking and expression_or_secretion data for 6 proteins are collected here from PMC10973816.

Data set [1] in a line: EGFP in TRPM1-positive OPL puncta, electroporated mouse retina. As to conditions: glycan lost; control: wild type mGluR6-EGFP.
Data set [2] in a line: Non-permeabilised mAb-1438 immunolabelling, HEK, untagged. As to conditions: glycan lost; control: wild type.
Data set [3] in a line: Permeabilised mAb-1438 immunolabelling, HEK, untagged. The settings on record: glycan lost; control: wild type.
Data set [4] can be described thus: Total EGFP fluorescence, HEK. As to conditions: glycan lost; control: wild type mGluR6-EGFP.

B1: mGluR6 (metabotropic glutamate receptor 6): N290Q (protein)
parent chain: MGRLRVLLLWLAWWLSQAGIAHGAGSVRLAGGLTLGGLFPVHARGAAGRACGTLKKEQGVHRLEAMLYALDRINADPELLPGVRLGARLLDTCSRDTYALEQALSFVQALIRGRGDGEEASVRCPGGVPPLRAAPPERVVAVVGASASSVSIMVANVLRLFAIPQISYASTAPELSDSTRYDFFSRVVPPDSYQAQAMVDIVRALGWNYVSTLASEGNYGESGVEAFVQISREAGGVCIAQSIKIPREPKPGEFHKVIRRLMETPNARGIIIFANEDDIRRVLEATRQANLTGHFLWVGSDSWGSKISPILNLEEEAVGAITILPKRASIDGFDQYFMTRSLENNRRNIWFAEFWEENFNCKLTSSGGQSDDSTRKCTGEERIGQDSTYEQEGKVQFVIDAVYAIAHALHSMHQALCPGHTGLCPAMEPTDGRTLLHYIRAVRFNGSAGTPVMFNENGDAPGRYDIFQYQATNGSASSGGYQAVGQWAEALRLDMEALQWSGDPHEVPPSQCSLPCGPGERKKMVKGVPCCWHCEACDGYRFQVDEFTCEACPGHMRPTPNHTGCRPTPVVRLTWSSPWAALPLLLAVLGIMATTTIIATFMRHNDTPIVRASGRELSYVLLTGIFLIYAITFLMVAEPCAAVCASRRLLLGLGTTLSYSALLTKTNRIYRIFEQGKRSVTPPPFISPTSQLVITFGLTSLQVVGVIAWLGAQPPHSVIDYEEQRTVDPEQARGVLKCDMSDLSLIGCLGYSLLLMVTCTVYAIKARGVPETFNEAKPIGFTMYTTCIIWLAFVPIFFGTAQSAEKIYIQTTTLTVSLSLSASVSLGMLYVPKTYVILFHPEQNVQKRKRSLKKTSTMAAPPKSENSEDAK
On to B1, for which the localisation_or_trafficking result in data set [1] and in data set [2] was “no change” in each case.

B2: mGluR6 (metabotropic glutamate receptor 6): 3Q!561 (protein)
parent chain: MGRLRVLLLWLAWWLSQAGIAHGAGSVRLAGGLTLGGLFPVHARGAAGRACGTLKKEQGVHRLEAMLYALDRINADPELLPGVRLGARLLDTCSRDTYALEQALSFVQALIRGRGDGEEASVRCPGGVPPLRAAPPERVVAVVGASASSVSIMVANVLRLFAIPQISYASTAPELSDSTRYDFFSRVVPPDSYQAQAMVDIVRALGWNYVSTLASEGNYGESGVEAFVQISREAGGVCIAQSIKIPREPKPGEFHKVIRRLMETPNARGIIIFANEDDIRRVLEATRQANLTGHFLWVGSDSWGSKISPILNLEEEAVGAITILPKRASIDGFDQYFMTRSLENNRRNIWFAEFWEENFNCKLTSSGGQSDDSTRKCTGEERIGQDSTYEQEGKVQFVIDAVYAIAHALHSMHQALCPGHTGLCPAMEPTDGRTLLHYIRAVRFNGSAGTPVMFNENGDAPGRYDIFQYQATNGSASSGGYQAVGQWAEALRLDMEALQWSGDPHEVPPSQCSLPCGPGERKKMVKGVPCCWHCEACDGYRFQVDEFTCEACPGHMRPTPNHTGCRPTPVVRLTWSSPWAALPLLLAVLGIMATTTIIATFMRHNDTPIVRASGRELSYVLLTGIFLIYAITFLMVAEPCAAVCASRRLLLGLGTTLSYSALLTKTNRIYRIFEQGKRSVTPPPFISPTSQLVITFGLTSLQVVGVIAWLGAQPPHSVIDYEEQRTVDPEQARGVLKCDMSDLSLIGCLGYSLLLMVTCTVYAIKARGVPETFNEAKPIGFTMYTTCIIWLAFVPIFFGTAQSAEKIYIQTTTLTVSLSLSASVSLGMLYVPKTYVILFHPEQNVQKRKRSLKKTSTMAAPPKSENSEDAK
In the case of B2, the localisation_or_trafficking result is on record as “abolishes” in data set [1] and “decreases” in data set [2]. The expression_or_secretion result in data set [3] was “decreases”; in data set [4], “decreases, 3Q!561 had the highest expression among the triple mutants”.

B3: mGluR6 (metabotropic glutamate receptor 6): triple mutant (only N290 left) (protein)
parent chain: MGRLRVLLLWLAWWLSQAGIAHGAGSVRLAGGLTLGGLFPVHARGAAGRACGTLKKEQGVHRLEAMLYALDRINADPELLPGVRLGARLLDTCSRDTYALEQALSFVQALIRGRGDGEEASVRCPGGVPPLRAAPPERVVAVVGASASSVSIMVANVLRLFAIPQISYASTAPELSDSTRYDFFSRVVPPDSYQAQAMVDIVRALGWNYVSTLASEGNYGESGVEAFVQISREAGGVCIAQSIKIPREPKPGEFHKVIRRLMETPNARGIIIFANEDDIRRVLEATRQANLTGHFLWVGSDSWGSKISPILNLEEEAVGAITILPKRASIDGFDQYFMTRSLENNRRNIWFAEFWEENFNCKLTSSGGQSDDSTRKCTGEERIGQDSTYEQEGKVQFVIDAVYAIAHALHSMHQALCPGHTGLCPAMEPTDGRTLLHYIRAVRFNGSAGTPVMFNENGDAPGRYDIFQYQATNGSASSGGYQAVGQWAEALRLDMEALQWSGDPHEVPPSQCSLPCGPGERKKMVKGVPCCWHCEACDGYRFQVDEFTCEACPGHMRPTPNHTGCRPTPVVRLTWSSPWAALPLLLAVLGIMATTTIIATFMRHNDTPIVRASGRELSYVLLTGIFLIYAITFLMVAEPCAAVCASRRLLLGLGTTLSYSALLTKTNRIYRIFEQGKRSVTPPPFISPTSQLVITFGLTSLQVVGVIAWLGAQPPHSVIDYEEQRTVDPEQARGVLKCDMSDLSLIGCLGYSLLLMVTCTVYAIKARGVPETFNEAKPIGFTMYTTCIIWLAFVPIFFGTAQSAEKIYIQTTTLTVSLSLSASVSLGMLYVPKTYVILFHPEQNVQKRKRSLKKTSTMAAPPKSENSEDAK
In the case of B3, the expression_or_secretion result in data set [3] and in data set [4] was “decreases” in each case. Also, in data set [2], the localisation_or_trafficking result was “decreases”.

B4: mGluR6 (metabotropic glutamate receptor 6): N473Q (protein)
parent chain: MGRLRVLLLWLAWWLSQAGIAHGAGSVRLAGGLTLGGLFPVHARGAAGRACGTLKKEQGVHRLEAMLYALDRINADPELLPGVRLGARLLDTCSRDTYALEQALSFVQALIRGRGDGEEASVRCPGGVPPLRAAPPERVVAVVGASASSVSIMVANVLRLFAIPQISYASTAPELSDSTRYDFFSRVVPPDSYQAQAMVDIVRALGWNYVSTLASEGNYGESGVEAFVQISREAGGVCIAQSIKIPREPKPGEFHKVIRRLMETPNARGIIIFANEDDIRRVLEATRQANLTGHFLWVGSDSWGSKISPILNLEEEAVGAITILPKRASIDGFDQYFMTRSLENNRRNIWFAEFWEENFNCKLTSSGGQSDDSTRKCTGEERIGQDSTYEQEGKVQFVIDAVYAIAHALHSMHQALCPGHTGLCPAMEPTDGRTLLHYIRAVRFNGSAGTPVMFNENGDAPGRYDIFQYQATNGSASSGGYQAVGQWAEALRLDMEALQWSGDPHEVPPSQCSLPCGPGERKKMVKGVPCCWHCEACDGYRFQVDEFTCEACPGHMRPTPNHTGCRPTPVVRLTWSSPWAALPLLLAVLGIMATTTIIATFMRHNDTPIVRASGRELSYVLLTGIFLIYAITFLMVAEPCAAVCASRRLLLGLGTTLSYSALLTKTNRIYRIFEQGKRSVTPPPFISPTSQLVITFGLTSLQVVGVIAWLGAQPPHSVIDYEEQRTVDPEQARGVLKCDMSDLSLIGCLGYSLLLMVTCTVYAIKARGVPETFNEAKPIGFTMYTTCIIWLAFVPIFFGTAQSAEKIYIQTTTLTVSLSLSASVSLGMLYVPKTYVILFHPEQNVQKRKRSLKKTSTMAAPPKSENSEDAK
Consider B4, for which the localisation_or_trafficking entry in data set [1] is recorded as “no change”; in data set [2], “decreases”.

B5: mGluR6 (metabotropic glutamate receptor 6): triple mutant (only N473 left) (protein)
parent chain: MGRLRVLLLWLAWWLSQAGIAHGAGSVRLAGGLTLGGLFPVHARGAAGRACGTLKKEQGVHRLEAMLYALDRINADPELLPGVRLGARLLDTCSRDTYALEQALSFVQALIRGRGDGEEASVRCPGGVPPLRAAPPERVVAVVGASASSVSIMVANVLRLFAIPQISYASTAPELSDSTRYDFFSRVVPPDSYQAQAMVDIVRALGWNYVSTLASEGNYGESGVEAFVQISREAGGVCIAQSIKIPREPKPGEFHKVIRRLMETPNARGIIIFANEDDIRRVLEATRQANLTGHFLWVGSDSWGSKISPILNLEEEAVGAITILPKRASIDGFDQYFMTRSLENNRRNIWFAEFWEENFNCKLTSSGGQSDDSTRKCTGEERIGQDSTYEQEGKVQFVIDAVYAIAHALHSMHQALCPGHTGLCPAMEPTDGRTLLHYIRAVRFNGSAGTPVMFNENGDAPGRYDIFQYQATNGSASSGGYQAVGQWAEALRLDMEALQWSGDPHEVPPSQCSLPCGPGERKKMVKGVPCCWHCEACDGYRFQVDEFTCEACPGHMRPTPNHTGCRPTPVVRLTWSSPWAALPLLLAVLGIMATTTIIATFMRHNDTPIVRASGRELSYVLLTGIFLIYAITFLMVAEPCAAVCASRRLLLGLGTTLSYSALLTKTNRIYRIFEQGKRSVTPPPFISPTSQLVITFGLTSLQVVGVIAWLGAQPPHSVIDYEEQRTVDPEQARGVLKCDMSDLSLIGCLGYSLLLMVTCTVYAIKARGVPETFNEAKPIGFTMYTTCIIWLAFVPIFFGTAQSAEKIYIQTTTLTVSLSLSASVSLGMLYVPKTYVILFHPEQNVQKRKRSLKKTSTMAAPPKSENSEDAK
Take B5: the expression_or_secretion entry in data set [3] and in data set [4] was “decreases” throughout. Moreover, the localisation_or_trafficking result in data set [2] is “decreases”.

B6: mGluR6 (metabotropic glutamate receptor 6): 3Q!445 (protein)
parent chain: MGRLRVLLLWLAWWLSQAGIAHGAGSVRLAGGLTLGGLFPVHARGAAGRACGTLKKEQGVHRLEAMLYALDRINADPELLPGVRLGARLLDTCSRDTYALEQALSFVQALIRGRGDGEEASVRCPGGVPPLRAAPPERVVAVVGASASSVSIMVANVLRLFAIPQISYASTAPELSDSTRYDFFSRVVPPDSYQAQAMVDIVRALGWNYVSTLASEGNYGESGVEAFVQISREAGGVCIAQSIKIPREPKPGEFHKVIRRLMETPNARGIIIFANEDDIRRVLEATRQANLTGHFLWVGSDSWGSKISPILNLEEEAVGAITILPKRASIDGFDQYFMTRSLENNRRNIWFAEFWEENFNCKLTSSGGQSDDSTRKCTGEERIGQDSTYEQEGKVQFVIDAVYAIAHALHSMHQALCPGHTGLCPAMEPTDGRTLLHYIRAVRFNGSAGTPVMFNENGDAPGRYDIFQYQATNGSASSGGYQAVGQWAEALRLDMEALQWSGDPHEVPPSQCSLPCGPGERKKMVKGVPCCWHCEACDGYRFQVDEFTCEACPGHMRPTPNHTGCRPTPVVRLTWSSPWAALPLLLAVLGIMATTTIIATFMRHNDTPIVRASGRELSYVLLTGIFLIYAITFLMVAEPCAAVCASRRLLLGLGTTLSYSALLTKTNRIYRIFEQGKRSVTPPPFISPTSQLVITFGLTSLQVVGVIAWLGAQPPHSVIDYEEQRTVDPEQARGVLKCDMSDLSLIGCLGYSLLLMVTCTVYAIKARGVPETFNEAKPIGFTMYTTCIIWLAFVPIFFGTAQSAEKIYIQTTTLTVSLSLSASVSLGMLYVPKTYVILFHPEQNVQKRKRSLKKTSTMAAPPKSENSEDAK
On to B6, for which the localisation_or_trafficking result in data set [1] is recorded as “no change”; in data set [2], “decreases”. Besides, the expression_or_secretion result in data set [3] and in data set [4] was “decreases” each time.
